In US8399206B2, “Methods for diagnosis, prognosis and methods of treatment” (Nodality, Inc., priority 2008, dated 2013):

B1: FLT-3L: fms-like tyrosine kinase receptor-3 ligand (protein, UniProt P49771 27-235, looked up)
Fms-related tyrosine kinase 3 …: TQDCSFQHSPISSDFAVKIRELSDYLLQDYPVTVASNLQDEELCGGLWRLVLAQRWMERLKTVAGSKMQGLLERVNTEIHFVTKCAFQPPPSCLRFVQTNISRLLQETSEQLVALKPWITRQNFSRCLELQCQPDSSTLPPPWSPRPLEATAPTAPQPPLLLLLLLPVGLLLLAAAWCLHWQRTRRRTPRPGEQVPPVPSPQDLLLVEH
B2: IL-27: interleukin-27 (protein, UniProt Q8NEV9 29-243; Q14213 21-229, looked up)
Interleukin-27 subunit alpha: FPRPPGRPQLSLQELRREFTVSLHLARKLLSEVRGQAHRFAESHLPGVNLYLLPLGEQLPDVSLTFQAWRRLSDPERLCFISTTLQPFHALLGGLGTQGRWTNMERMQLWAMRLDLRDLQRHLRFQVLAAGFNLPEEEEEEEEEEEEERKGLLPGALGSALQGPAQVSWPQLLSTYRLLHSLELVLSRAVRELLLLSKAGHSVWPLGFPTLSPQP
Interleukin-27 subunit beta: RKGPPAALTLPRVQCRASRYPIAVDCSWTLPPAPNSTSPVSFIATYRLGMAARGHSWPCLQQTPTSTSCTITDVQLFSMAPYVLNVTAVHPWGSSSSFVPFITEHIIKPDPPEGVRLSPLAERQLQVQWEPPGSWPFPEIFSLKYWIRYKRQGAARFHRVGPIEATSFILRAVRPRARYYVQVAAQDLTDYGELSDWSLPATATMSLGK

Key:
Assay type in all cases: cell-based, human
AML BMMC leukemic blasts = assay: SCNP modulated signaling assay, AML study No. 2 (BMMC, CR vs NR, clinical sub-groups)
[1] = tested on: healthy bone marrow myeloblast (BMMC); assay: FLT3L-induced signaling in healthy control BMMC myeloblasts (Example 9); conditions: BMMC samples
Excerpt: This example identifies intracellular signaling pathways associated with FLT3 ITD in two independent cohorts of diagnostic AML samples that serve as an improvement over current clinical tools in the identification of clinically meaningful altered FLT 3 and has implications for cohort selection in the development of FLT3 inhibitors. The two cohorts of data were further analyzed to investigate the differences in signaling between FLT-WT and FLT-ITD samples. The first cohort of data (“study 1”) comprised the 34 samples from University Health Network outlined in Table 16 and Table 19. The second cohort of data (“study 2”) comprised an 83 sample subset of MD Anderson Cancer Center data outlined in Table 16 (and Table 19). The 83 sample subset was selected based on known FLT3 mutation status. Both cohorts of data were used to investigate differences in FLT3 signaling between leukemic blasts and control data.
In order to further characterize wild-type FLT receptor signaling in AML, we compared FLT3L-induced signaling in the myeloblast population of control BMMC samples with FLT3L-induced signaling in the leukemic blast population of FLT3-WT AML samples.

[2] = tested on: leukemic myeloblasts and healthy BMMb; assay: SCNP in AML patients aged >60 years (ECOG E3999), FLT3-ITD vs FLT3-WT vs healthy BMMb (Example 12); conditions: FLT3-ITD blasts compared to BMMb
Excerpt: Modulated single cell network profiling (SCNP) was used to evaluate the activation state of intracellular signaling molecules (i.e. nodes), including phosphorylated (p)-Akt, p-Erk, p-S6, p-Stat5 and cleaved-PARP, at baseline and after treatment with specific modulators [including cytokines (such as IL-27) growth factors (such as FLT3 ligand) and drugs (such a cytosine arabinoside)] in 7 healthy bone marrow mononuclear blasts (BMMb) and leukemic myeloblasts, characterized for FLT3 receptor mutation status, from 44 AML patients (38 FLT-WT and 6 FLT3-ITD), aged>60 years (ECOG trial E3999). A total of 64 node-metrics were analyzed.

[3] = Study No. 2, all patients, CR samples
[4] = Study No. 2, all patients, NR samples

Row | Molecule | Flt3L induced p-Akt and p-Erk (AML BMMC leukemic blasts; patients over age 60 or with secondary AML lacking response to induction chemotherapy) | H2O2 and FLT3L responses, NR vs CR (AML BMMC leukemic blasts; patients younger than 60 years old (so in the source)) | FLT3L activation of p-Akt and p-S6 at later time point [1] | range of FLT3L-induced S6 signaling [1] | FLT3L-induced p-Akt and p-S6 ([1]; early time points (4 minutes, 10 minutes)) | FLT3 ligand-induced pathway activation [2] | Mean Value of CRs, p-Stat1 Total Phospho (AML BMMC leukemic blasts; [3]) | Mean Value of CRs, p-Stat3 Total Phospho (AML BMMC leukemic blasts; [3]) | Mean Value of CRs, p-Stat3 Fold (AML BMMC leukemic blasts; Study No. 2, all patients, CR samples, negative = down regulation) | Mean Value of NRs, p-Stat1 Total Phospho (AML BMMC leukemic blasts; [4]) | Mean Value of NRs, p-Stat3 Fold (AML BMMC leukemic blasts; [4]) | Mean Value of NRs, p-Stat3 Total Phospho (AML BMMC leukemic blasts; [4]) | IL-27 response, NR vs CR (AML BMMC leukemic blasts; patients younger than 60 years old) | IL-27 induced activation of the Jak/Stat pathway [2]
1 | B1 | increased Flt3L induced p-Akt and p-Erk | NRs have higher H2O2 and FLT3L responses than CRs | largely diminished by 15 minutes | narrow range of S6 signaling | increased levels of p-Akt and p-S6 | decreased FLT3 ligand-induced activation of P13K and Raf/Ras/Erk pathways |  |  |  |  |  |  |  | 
2 | B2 |  |  |  |  |  |  | 1.66 | 1.88 | 0.22 | 2.63 | 0.58 | 2.43 | NRs have higher IL-27 response than CRs | minimal IL-27 induced activation of the Jak/Stat pathway
